Measurements taken from patent US20220324970A1 (Janssen / Centocor, published 2022).
Where two headings read alike, the source gives them in different places.

T1: hpIgR_D2-D3
T1 construct: HIS-tagged construct from HEK293 cells; also called human pIgR extracellular domain 2-domain 3 (D2-D3); hD2-D3
T1 HIS-tagged domain construct: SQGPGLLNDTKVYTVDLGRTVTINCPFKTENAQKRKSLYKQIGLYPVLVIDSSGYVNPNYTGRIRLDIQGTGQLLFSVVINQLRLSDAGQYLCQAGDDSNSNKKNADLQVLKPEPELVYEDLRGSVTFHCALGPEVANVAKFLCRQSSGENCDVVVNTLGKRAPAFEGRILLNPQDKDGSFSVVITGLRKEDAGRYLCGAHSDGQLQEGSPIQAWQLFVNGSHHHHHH

T2: hpIgR_D3
T2 construct: HIS-tagged construct from HEK293 cells; also called human pIgR extracellular domain 3 (D3); hD3
T2 HIS-tagged domain construct: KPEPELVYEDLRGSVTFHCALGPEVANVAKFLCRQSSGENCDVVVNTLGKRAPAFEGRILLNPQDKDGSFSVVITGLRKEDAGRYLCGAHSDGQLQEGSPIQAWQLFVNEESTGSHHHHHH

T3: human pIgR extracellular domain 4-domain 5 (D4-D5) (human, UniProt P01833 350-565)
T3 construct: HIS-tagged construct made in HEK293 cells; also called hpIgR domains 4-5
T3 chain: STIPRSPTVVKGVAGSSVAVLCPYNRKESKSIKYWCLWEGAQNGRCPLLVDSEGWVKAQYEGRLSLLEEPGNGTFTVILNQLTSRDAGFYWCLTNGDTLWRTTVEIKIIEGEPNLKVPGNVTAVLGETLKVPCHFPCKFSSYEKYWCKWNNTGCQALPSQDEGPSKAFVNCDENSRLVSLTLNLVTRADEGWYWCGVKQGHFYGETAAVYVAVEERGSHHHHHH


Tests used:
[1] = target: T4, human pIgR, full-length, on cells (human, UniProt P01833 19-764); assay: cell-based or functional assay
[2] = target: T4, human pIgR, full-length, on cells; assay: cell-based or functional assay; remark: listed apart in the source
[3] = target: T4, human pIgR, full-length, on cells; assay: cell-based or functional assay; remark: listed apart in the source
[4] = target: T4, human pIgR, full-length, on cells; assay: flow cytometry on MDCK-hpIgR cells
[5] = target: T5, human pIgR extracellular domain (ECD) (human, UniProt P01833 19-638); assay: BLI; summary table, repeats Table 1
T5 construct: also called hpIgR ECD

[6] = target: T5, human pIgR extracellular domain (ECD); assay: BLI; summary table, repeats Table 1; remark: listed apart in the source
[7] = target: T5, human pIgR extracellular domain (ECD); assay: BLI (Octet), VHH-mono-Fc and hpIgR ectodomain
[8] = target: T5, human pIgR extracellular domain (ECD); assay: ECL (MSD), hpIgR-ECD coated, anti-Fc detection
Description: (§1) To check whether VHH recognizes a buried epitope on pIgR, EC₅₀ values were measured for VHH-mono-Fc molecules binding to hpIgR-ECD protein by electrochemiluminescence using two different detection antibodies, an anti-Fc antibody and an anti-VHH antibody. pIgR ECD (10 μg/ml in PBS) was coated on high-bind MSD plates for 2 hours at RT with 1000 rpm, incubated with blocking buffer for 1 hour at RT, incubated with VHH-mono-Fc molecules (increasing concentrations in PBS) for 2 hours at RT with 1000 rpm, washed 3× with PBT, incubated with ruthenylated secondary antibody (2 μg/ml in PBS) for 1 hour at RT with 1000 rpm, washed 3× with PBT and read plates in 40 ul reading buffer using the MSD imager. EC50 was calculated by fitting log VHH concentration versus log ECLU in Prism (Graphpad). The increase in EC₅₀ (>50-fold) due to anti-VHH detection was used as a measure to determine whether VHH recognized buried epitope on pIgR.

[9] = target: T5, human pIgR extracellular domain (ECD); assay: ECL (MSD), hpIgR-ECD coated, anti-VHH detection
[10] = target: T5, human pIgR extracellular domain (ECD); assay: ECL (MSD), anti-VHH detection against anti-Fc detection
Description: as §1

hpIgR_D2-D3 [11] = target: T1, hpIgR_D2-D3; assay: BLI (Octet RED384), 1:1 fit, 25 C, PBS
Description: (§2) Bio-layer Interferometry was performed as follows. […] Data were collected with Octet Data Acquisition version 7.1.0.87 (ForteBio) and analyzed using Octet Data Analysis version 7.1 (ForteBio). To measure binding kinetics between VHH-mono-Fc molecules and HIS-tagged pIgR proteins, VHH-mono-Fc was immobilized on amine-reactive generation-2 (ARG2) biosensors according to manufacturer's instructions and increasing concentrations of pIgR proteins were exposed to sensor-immobilized VHH. In some cases, HIS-tagged pIgR proteins were immobilized on anti-HIS biosensors and exposed to increasing concentrations of VHH-mono-Fc molecules. Association and dissociation rates were measured by the shift in wavelength (nm). […] All reactions were performed at 25° C. in PBS.

[12] = target: T5, human pIgR extracellular domain (ECD); assay: BLI (Octet RED384), 1:1 fit, 25 C, PBS
Description: as §2

[13] = target: T6, human pIgR extracellular domain 1-domain 2 (D1-D2) (human, UniProt P01833 19-240); assay: BLI (Octet RED384), 1:1 fit, 25 C, PBS
T6 construct: HIS-tagged construct made in HEK293 cells
Description: as §2

[14] = target: T7, human pIgR extracellular domain 2 (D2) (human, UniProt P01833 128-242); assay: BLI (Octet RED384), 1:1 fit, 25 C, PBS
T7 construct: HIS-tagged construct made in HEK293 cells; also called hpIgR domain 2
Description: as §2

[15] = target: T4, human pIgR, full-length, on cells; assay: flow cytometry on MDCK-hpIgR cells; summary table, repeats Table 1
[16] = target: T4, human pIgR, full-length, on cells; assay: as above; remark: listed apart in the source
Description: Flow Cytometry was performed as follows. To test whether VHH-mono-Fc molecules recognize cell-surface hpIgR, Madin-Darby canine kidney (MDCK) cells engineered to express full-length hpIgR were used. Cells were cultured in Dulbecco's modified Eagle's medium containing 10% fetal calf serum at 37° C. with 5% CO₂. Cells were split into equal fractions (≈70,000 cells) and incubated with increasing concentrations of VHH-mono-Fc molecules for 30 min at 4 C. […] Cells were washed twice with cold staining buffer, resuspended in running buffer and analyzed with an iQue Screener (IntelliCyt Corporation). Binding was assessed by RL1 (A647) Geomeans from the live cell population and EC50 was calculated by fitting log VHH concentration versus MFI in Prism (Graphpad).

hpIgR_D2-D3 [17] = target: T1, hpIgR_D2-D3; assay: BLI (Octet RED384), 1:1 fit, 25 C, PBS; column kdis
[18] = target: T5, human pIgR extracellular domain (ECD); assay: as above
[19] = target: T6, human pIgR extracellular domain …; assay: as above
[20] = target: T7, human pIgR extracellular domain 2 (D2); assay: as above
hpIgR_D3 = target: T2, hpIgR_D3; assay: ECL (MSD) heat map, HIS-tagged construct captured via anti-HIS, anti-human-Fc detection;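 further: VHH-mono-Fc molecules tested at 100 µg/ml for 2 h on captured His-tagged pIgR constructs (10 µg/ml), read-out as electrochemiluminescence units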
Description: (§3) A meso-scale discovery (MSD) platform was used for conducting epitope mapping and epitope burial studies. To test the binding of VHH-mono-Fc molecules to purified pIgR protein constructs, Streptavidin MSD plates were coated with a biotinylated anti-HIS antibody (2 μg/ml in PBS) for 1 hour at RT with 1000 rpm, washed 3× with PBT (PBS+0.1% Tween-20), incubated with blocking buffer for 1 hour at RT, incubated with His-tagged pIgR proteins (10 μg/ml in PBS) for 2 hours at RT with 1000 rpm, washed 3× with PBT, incubated with VHH-mono-Fc molecules (100 μg/ml in PBS) for 2 hours at RT with 1000 rpm, washed 3× with PBT, incubated with ruthenylated-anti-human-Fc antibody (2 μg/ml in PBS) for 1 hour at RT with 1000 rpm, washed 3× with PBT and read plates in 40 ul reading buffer using the MSD imager. ECLU values were plotted as a heatmap.
(§4) Binding of VHH-mFc molecules were tested to immobilized pIgR constructs by the electrochemiluminescence method.

[21] = target: T8, human pIgR extracellular domain 1 (D1) (human, UniProt P01833 19-127); assay: as above
T8 construct: HIS-tagged construct made in HEK293 cells; also called hpIgR domain-1
Description: as §3, §4

[22] = target: T9, human pIgR extracellular domain 5 (D5) (human, UniProt P01833 460-565); assay: as above
T9 construct: HIS-tagged construct made in HEK293 cells; also called hpIgR domain 5
Description: as §3, §4

[23] = target: T3, human pIgR extracellular domain …; assay: as above
Description: (§5) The Electrochemiluminescence assay was performed as follows. A meso-scale discovery (MSD) platform was used for conducting epitope mapping and epitope burial studies. To test the binding of VHH-mono-Fc molecules to purified pIgR protein constructs, Streptavidin MSD plates were coated with a biotinylated anti-HIS antibody (2 μg/ml in PBS) for 1 hour at RT with 1000 rpm, washed 3× with PBT (PBS+0.1% Tween-20), incubated with blocking buffer for 1 hour at RT, incubated with His-tagged pIgR proteins (10 μg/ml in PBS) for 2 hours at RT with 1000 rpm, washed 3× with PBT, incubated with VHH-mono-Fc molecules (100 μg/ml in PBS) for 2 hours at RT with 1000 rpm, washed 3× with PBT, incubated with ruthenylated-anti-human-Fc antibody (2 μg/ml in PBS) for 1 hour at RT with 1000 rpm, washed 3× with PBT and read plates in 40 ul reading buffer using the MSD imager. ECLU values were plotted as a heatmap.

[24] = target: T5, human pIgR extracellular domain (ECD); assay: BLI (Octet RED384), 1:1 fit, 25 C, PBS; remark: listed apart in the source
[25] = target: T3, human pIgR extracellular domain …; assay: BLI (Octet RED384), 1:1 fit, 25 C, PBS
[26] = target: T5, human pIgR extracellular domain (ECD); assay: BLI (Octet RED384), 1:1 fit, 25 C, PBS; column kdis; remark: listed apart in the source
[27] = target: T3, human pIgR extracellular domain …; assay: as above
[28] = target: T7, human pIgR extracellular domain 2 (D2); assay: ECL (MSD) heat map, HIS-tagged construct captured via anti-HIS, anti-human-Fc detection;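 further: VHH-mono-Fc molecules tested at 100 µg/ml for 2 h on captured His-tagged pIgR constructs (10 µg/ml), read-out as electrochemiluminescence units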
Description: as §3, §4

hpIgR_D2-D3 [29] = target: T1, hpIgR_D2-D3; assay: as above
Description: as §5

[30] = target: T6, human pIgR extracellular domain …; assay: as above
Description: as §5

T5 sequence (P01833 other isoform, or with tags, fused parts or gaps): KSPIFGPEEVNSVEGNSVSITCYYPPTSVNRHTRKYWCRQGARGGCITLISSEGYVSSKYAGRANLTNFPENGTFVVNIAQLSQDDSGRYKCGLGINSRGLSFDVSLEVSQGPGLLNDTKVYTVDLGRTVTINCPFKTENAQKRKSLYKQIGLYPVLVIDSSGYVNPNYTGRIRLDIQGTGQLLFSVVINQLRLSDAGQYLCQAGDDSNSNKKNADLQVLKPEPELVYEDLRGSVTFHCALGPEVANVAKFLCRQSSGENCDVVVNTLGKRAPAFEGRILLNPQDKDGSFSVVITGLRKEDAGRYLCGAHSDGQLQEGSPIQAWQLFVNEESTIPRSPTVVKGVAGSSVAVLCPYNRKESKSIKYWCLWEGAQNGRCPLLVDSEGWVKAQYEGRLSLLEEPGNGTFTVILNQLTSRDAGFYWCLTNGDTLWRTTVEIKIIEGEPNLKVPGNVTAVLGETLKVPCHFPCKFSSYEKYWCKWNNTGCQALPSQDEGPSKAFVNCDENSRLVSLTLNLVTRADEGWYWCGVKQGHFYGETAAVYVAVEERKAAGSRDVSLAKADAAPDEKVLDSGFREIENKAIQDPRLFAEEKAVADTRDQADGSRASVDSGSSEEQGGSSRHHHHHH
T6 sequence (P01833 other isoform, or with tags, fused parts or gaps limits assumed): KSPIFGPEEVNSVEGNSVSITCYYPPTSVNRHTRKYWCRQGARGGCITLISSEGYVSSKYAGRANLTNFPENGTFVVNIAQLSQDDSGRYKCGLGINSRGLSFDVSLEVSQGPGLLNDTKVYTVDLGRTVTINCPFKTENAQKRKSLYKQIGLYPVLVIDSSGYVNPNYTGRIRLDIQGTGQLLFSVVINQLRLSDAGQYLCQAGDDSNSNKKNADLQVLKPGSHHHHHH
T4 sequence (P01833 19-764): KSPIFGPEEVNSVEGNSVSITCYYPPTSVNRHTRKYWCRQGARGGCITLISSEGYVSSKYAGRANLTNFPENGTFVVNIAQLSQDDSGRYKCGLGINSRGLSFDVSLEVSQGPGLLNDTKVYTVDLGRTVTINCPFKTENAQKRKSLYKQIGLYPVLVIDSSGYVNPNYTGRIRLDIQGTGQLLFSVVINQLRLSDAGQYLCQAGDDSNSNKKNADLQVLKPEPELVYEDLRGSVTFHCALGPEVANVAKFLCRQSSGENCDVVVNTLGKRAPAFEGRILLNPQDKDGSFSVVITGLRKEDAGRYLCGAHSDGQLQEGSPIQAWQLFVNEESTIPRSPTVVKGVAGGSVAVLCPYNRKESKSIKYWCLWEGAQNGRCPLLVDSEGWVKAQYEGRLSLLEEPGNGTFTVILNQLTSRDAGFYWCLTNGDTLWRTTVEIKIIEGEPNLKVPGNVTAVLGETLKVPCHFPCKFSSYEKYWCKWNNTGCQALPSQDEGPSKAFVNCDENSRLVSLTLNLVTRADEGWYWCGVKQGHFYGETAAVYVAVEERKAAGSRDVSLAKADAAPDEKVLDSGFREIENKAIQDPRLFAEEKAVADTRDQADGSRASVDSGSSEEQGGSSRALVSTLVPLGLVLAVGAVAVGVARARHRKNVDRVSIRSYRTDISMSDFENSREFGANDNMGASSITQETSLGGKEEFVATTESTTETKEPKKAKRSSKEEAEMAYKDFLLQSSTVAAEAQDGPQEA
T8 sequence (P01833 other isoform, or with tags, fused parts or gaps limits assumed): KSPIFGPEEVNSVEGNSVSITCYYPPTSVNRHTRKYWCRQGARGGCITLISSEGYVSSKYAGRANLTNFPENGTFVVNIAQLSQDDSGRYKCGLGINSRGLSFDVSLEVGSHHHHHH

increase in their apical concentration relative to control VHH (MDCK-hpIgR monolayers) [1] [fold]	Transcytosis (Fold Incr.) [2] [fold]	For. Trans. (Fold Incr.) [3] [fold]	Rev. Trans (Fold Incr.) [3] [fold]	EC50 [4] [µM]	Kd [5] [µM]	Kd [6] [µM]	Kd [7] [µM]	EC50 [8] [µM]	EC50 [9] [µM]	Fold change in EC50 [10] [fold]	EC50 [15] [µM]	EC50 [16] [µM]	Binder	binding result (hpIgR_D3)	binding result [21]	binding result [22]	also measured
> 10	12.6	15.1	8	0.0329	0.022	0.022	0.022	0.0011	0.206	180	0.0329	0.0329	VHH4-linker-mono-Fc protein (Fc fusion, also called VHH4-mono-Fc; hpIgR_073) EVQVVESGGGLVQAGGSLRLSCAVSGTSVSSNAMGWYRQAPGKQREWVGFIDRIATTTIATSVKGRFAITRDNAKNTVYLQMSGLKPEDTAVYYCNHPLTARWGQGTQVTVSSEPKTPKPQPQPQLQPQPNPTTESKSPKSPAPELLGGPSVFLFPPKPKDTLMISRTPEVTCVVVDVSHEDPEVKFNWYVDGVEVHNAKTKPREEQYNSTYRVVSVLTVLHQDWLNGKEYKCKVSNKALPAPIEKTISKAKGQPREPQVYTKPPSREEMTKNQVSLSCLVKGFYPSDIAVEWESNGQPENNYKTTVPVLDSDGSFRLASYLTVDKSRWQQGNVFSCSVMHEALHNHYTQKSLSLSPGK	no binding (tested: 100 ug/ml (single concentration))	no binding (tested: 100 ug/ml (single concentration))	no binding (tested: 100 ug/ml (single concentration))	Kd (hpIgR_D2-D3 [11]): 0.0861 µM; kon (hpIgR_D2-D3 [11]): 14000 M⁻¹ s⁻¹; Kd [12]: 0.076 µM; kon [12]: 14400 M⁻¹ s⁻¹; Kd [13]: 0.0773 µM; kon [13]: 19200 M⁻¹ s⁻¹; Kd [14]: 0.0838 µM; kon [14]: 19100 M⁻¹ s⁻¹; koff (hpIgR_D2-D3 [17]): 0.0012 s⁻¹; koff [18]: 0.0011 s⁻¹; koff [19]: 0.00149 s⁻¹; koff [20]: 0.0016 s⁻¹; binding result [23]: no binding (tested: 100 ug/ml (single concentration))
> 10	22.4	24.2	6.6	0.0015	0.004	0.004	0.004	0.0004	0.0008	1.8	0.0015	0.0015	VHH9-linker-mono-Fc protein (Fc fusion, made in CHO cells; also called VHH9-mono-Fc; hpIgR_221) QVQLVESGGGLVQAGGSLRLSCAVSGRTFSTYRMGWFRQAPGKERSFVAAISWSGGSTTYADPVKGRFTISRDNAKNTVYLRMNSLKPEDTAVYYCNDQRGYWGQGTLVTVSSEPKTPKPQPQPQLQPQPNPTTESKSPKSPAPELLGGPSVFLFPPKPKDTLMISRTPEVTCVVVDVSHEDPEVKFNWYVDGVEVHNAKTKPREEQYNSTYRVVSVLTVLHQDWLNGKEYKCKVSNKALPAPIEKTISKAKGQPREPQVYTKPPSREEMTKNQVSLSCLVKGFYPSDIAVEWESNGQPENNYKTTVPVLDSDGSFRLASYLTVDKSRWQQGNVFSCSVMHEALHNHYTQKSLSLSPGK	no binding (tested: 100 ug/ml (single concentration))	no binding (tested: 100 ug/ml (single concentration))	no binding (tested: 100 ug/ml (single concentration))	Kd [24]: 0.0196 µM; kon [24]: 79300 M⁻¹ s⁻¹; Kd [25]: 0.0126 µM; kon [25]: 133000 M⁻¹ s⁻¹; koff [26]: 0.00156 s⁻¹; koff [27]: 0.00169 s⁻¹; binding result [28]: no binding (tested: 100 ug/ml (single concentration)); binding result (hpIgR_D2-D3 [29]): no binding (tested: 100 ug/ml (single concentration)); binding result [30]: no binding (tested: 100 ug/ml (single concentration))
